Test results published in article PMC10057847, “Precision engineering of biological function with large-scale measurements and machine learning” (PLOS ONE, 2023).

Test system: eYFP under the control of the lactose operator (lacO)
Assay: in vivo dose-response curves of LacI variants to IPTG measured with flow cytometry (eYFP output), fit to the Hill equation
Assay type: cell-based, E. coli
Conditions: Hill fit of cytometry data; for n: the Hill coefficient: IPTG dose-response; for log_g0: the base-10 logarithm of G0 (in MEF): basal output; for log_g0: the base-10 logarithm of G0 (in MEF) / log_ginf: the base-10 logarithm of G∞ (in MEF): posterior mean, value is log10; for log_ginf: the base-10 logarithm of G∞ (in MEF): saturating output
Description: Dose-response curves were measured with flow cytometry using E. coli MG1655Δlac transformed with variants of the pVER plasmid, described previously. The plasmid contained different variants of the lacI coding DNA sequence (CDS), as described in the text, and an expression cassette with enhanced yellow fluorescent protein (eYFP) under the control of the lactose operator (lacO). The lacI CDS was verified with Sanger sequencing for each variant.
All cultures were grown in a rich M9 media (3 g/L KH2PO4, 6.78 g/L Na2HPO4, 0.5 g/L NaCl, 1 g/L NH4Cl, 0.1 mmol/L CaCl2, 2 mmol/L MgSO4, 4% glycerol, and 20 g/L casamino acids) supplemented with 50 μg/mL kanamycin.
For flow cytometry measurements, E. coli cultures were grown in a laboratory automation system that included an automated liquid handler (Hamilton, STAR), an automated plate sealer (4titude, a4S), an automated de-sealer (Brooks, XPeel), and two multi-mode plate readers (BioTek, Neo2SM).
Cultures were grown in clear polystyrene 96-well plates with 1.1 mL square wells (4titude, 4ti-0255). The culture volume per well was 0.5 mL. Before incubation, each 96-well growth plate was sealed by the automated plate sealer with a gas permeable membrane (4titude, 4ti-0598). Growth plates were incubated in one of the multi-mode plate readers at 37°C with a 1°C gradient applied from the bottom to the top of the incubation chamber to minimize condensation on the inside of the membrane. The plate readers were set for double-orbital shaking at 807 cycles per minute. Optical density at 600 nm (OD600) was measured every 5 minutes during incubation, with continuous shaking applied between measurements (optical density at 700 nm and YFP fluorescence were also measured every 5 minutes). After incubation, the automated de-sealer was used to remove the gas-permeable membrane from each 96-well plate to enable automated passaging of cultures and sample preparation for flow cytometry measurements.
For each measurement, starter cultures were prepared from glycerol freezer stock in 5 mL of rich M9 media in a 14 mL snap-cap culture tubes. Starter cultures were incubated at 37°C with orbital shaking at 300 rpm for between 4 h and 24 h prior to loading the automation system. The automation system then prepared 96-well growth plates, sealed and de-sealed the growth plates, incubated the growth plates, and prepared flow cytometry sample plates. The automated culture protocol consisted of the following steps: […]

| Molecule | n: the Hill coefficient | log_g0: the base-10 logarithm of G0 (in MEF) [MEF] | log_ginf: the base-10 logarithm of G∞ (in MEF) [MEF] |
| --- | --- | --- | --- |
| pVER-IPTG-002(V136E): LacI variant: V96E V136E T154I S158R V238D M254I V264I (protein, UniProt P03023 1-360, looked up, variant V96E V136E T154I S158R V238D M254I V264I) Lactose operon repressor: MKPVTLYDVAEYAGVSYQTVSRVVNQASHVSAKTREKVEAAMAELNYIPNRVAQQLAGKQSLLIGVATSSLALHAPSQIVAAIKSRADQLGASVVESMVERSGVEACKAAVHNLLAQRVSGLIINYPLDDQDAIAEEAACTNVPALFLDVSDQIPINRIIFSHEDGTRLGVEHLVALGHQQIALLAGPLSSVSARLRLAGWHKYLTRNQIQPIAEREGDWSAMSGFQQTMQMLNEGIDPTAMLVANDQMALGAIRAITESGLRIGADISVVGYDDTEDSSCYIPPLTTIKQDFRLLGQTSVDRLLQLSQGQAVKGNQLLPVSLVKRKTTLAPNTQTASPRALADSLMQLARQVSRLESGQ | 2.088 | 4.551 | 1.924 |
| pVER-IPTG-WT(F161V): LacI variant: F161V (protein, UniProt P03023 1-360, looked up, variant F161V) Lactose operon repressor: MKPVTLYDVAEYAGVSYQTVSRVVNQASHVSAKTREKVEAAMAELNYIPNRVAQQLAGKQSLLIGVATSSLALHAPSQIVAAIKSRADQLGASVVVSMVERSGVEACKAAVHNLLAQRVSGLIINYPLDDQDAIAVEAACTNVPALFLDVSDQTPINSIIVSHEDGTRLGVEHLVALGHQQIALLAGPLSSVSARLRLAGWHKYLTRNQIQPIAEREGDWSAMSGFQQTMQMLNEGIVPTAMLVANDQMALGAMRAITESGLRVGADISVVGYDDTEDSSCYIPPLTTIKQDFRLLGQTSVDRLLQLSQGQAVKGNQLLPVSLVKRKTTLAPNTQTASPRALADSLMQLARQVSRLESGQ | 1.594 |  |  |
| pVER-IPTG-WT(I83M): LacI variant: I83M (protein, UniProt P03023 1-360, looked up, variant I83M) Lactose operon repressor: MKPVTLYDVAEYAGVSYQTVSRVVNQASHVSAKTREKVEAAMAELNYIPNRVAQQLAGKQSLLIGVATSSLALHAPSQIVAAMKSRADQLGASVVVSMVERSGVEACKAAVHNLLAQRVSGLIINYPLDDQDAIAVEAACTNVPALFLDVSDQTPINSIIFSHEDGTRLGVEHLVALGHQQIALLAGPLSSVSARLRLAGWHKYLTRNQIQPIAEREGDWSAMSGFQQTMQMLNEGIVPTAMLVANDQMALGAMRAITESGLRVGADISVVGYDDTEDSSCYIPPLTTIKQDFRLLGQTSVDRLLQLSQGQAVKGNQLLPVSLVKRKTTLAPNTQTASPRALADSLMQLARQVSRLESGQ |  |  | 4.268 |
| pVER-IPTG-WT(G200C): LacI variant: G200C (protein, UniProt P03023 1-360, looked up, variant G200C) Lactose operon repressor: MKPVTLYDVAEYAGVSYQTVSRVVNQASHVSAKTREKVEAAMAELNYIPNRVAQQLAGKQSLLIGVATSSLALHAPSQIVAAIKSRADQLGASVVVSMVERSGVEACKAAVHNLLAQRVSGLIINYPLDDQDAIAVEAACTNVPALFLDVSDQTPINSIIFSHEDGTRLGVEHLVALGHQQIALLAGPLSSVSARLRLACWHKYLTRNQIQPIAEREGDWSAMSGFQQTMQMLNEGIVPTAMLVANDQMALGAMRAITESGLRVGADISVVGYDDTEDSSCYIPPLTTIKQDFRLLGQTSVDRLLQLSQGQAVKGNQLLPVSLVKRKTTLAPNTQTASPRALADSLMQLARQVSRLESGQ |  |  | 4.489 |
| pVER-IPTG-WT(L56M/D130E): LacI variant: L56M D130E (protein, UniProt P03023 1-360, looked up, variant L56M D130E) Lactose operon repressor: MKPVTLYDVAEYAGVSYQTVSRVVNQASHVSAKTREKVEAAMAELNYIPNRVAQQMAGKQSLLIGVATSSLALHAPSQIVAAIKSRADQLGASVVVSMVERSGVEACKAAVHNLLAQRVSGLIINYPLDEQDAIAVEAACTNVPALFLDVSDQTPINSIIFSHEDGTRLGVEHLVALGHQQIALLAGPLSSVSARLRLAGWHKYLTRNQIQPIAEREGDWSAMSGFQQTMQMLNEGIVPTAMLVANDQMALGAMRAITESGLRVGADISVVGYDDTEDSSCYIPPLTTIKQDFRLLGQTSVDRLLQLSQGQAVKGNQLLPVSLVKRKTTLAPNTQTASPRALADSLMQLARQVSRLESGQ | 1.42 |  |  |
| pVER-IPTG-WT(L56M/A194V): LacI variant: L56M A194V (protein, UniProt P03023 1-360, looked up, variant L56M A194V) Lactose operon repressor: MKPVTLYDVAEYAGVSYQTVSRVVNQASHVSAKTREKVEAAMAELNYIPNRVAQQMAGKQSLLIGVATSSLALHAPSQIVAAIKSRADQLGASVVVSMVERSGVEACKAAVHNLLAQRVSGLIINYPLDDQDAIAVEAACTNVPALFLDVSDQTPINSIIFSHEDGTRLGVEHLVALGHQQIALLAGPLSSVSVRLRLAGWHKYLTRNQIQPIAEREGDWSAMSGFQQTMQMLNEGIVPTAMLVANDQMALGAMRAITESGLRVGADISVVGYDDTEDSSCYIPPLTTIKQDFRLLGQTSVDRLLQLSQGQAVKGNQLLPVSLVKRKTTLAPNTQTASPRALADSLMQLARQVSRLESGQ | 1.42 |  |  |
| pVER-IPTG-003: LacI variant: V52M H74Y V119I G200V R207H L262M K290R Q306H A337V Q352* (protein, UniProt P03023 1-360, looked up, variant V52M H74Y V119I G200V R207H L262M K290R Q306H A337V Q352*) Lactose operon repressor: MKPVTLYDVAEYAGVSYQTVSRVVNQASHVSAKTREKVEAAMAELNYIPNRMAQQLAGKQSLLIGVATSSLALYAPSQIVAAIKSRADQLGASVVVSMVERSGVEACKAAVHNLLAQRISGLIINYPLDDQDAIAVEAACTNVPALFLDVSDQTPINSIIFSHEDGTRLGVEHLVALGHQQIALLAGPLSSVSARLRLAVWHKYLTHNQIQPIAEREGDWSAMSGFQQTMQMLNEGIVPTAMLVANDQMALGAMRAITESGMRVGADISVVGYDDTEDSSCYIPPLTTIRQDFRLLGQTSVDRLLHLSQGQAVKGNQLLPVSLVKRKTTLAPNTQTVSPRALADSLMQLARVSRLESGQ | 0.7133 | 4.508 | 3.573 |
